Laboratory results reported in the supplement of paper PMC7125110.
± gives the standard error. For some of these results: Fewer inactive variants are shown than the library holds.

B1: glmS ribozyme (parent)
chain: AUAAAAGCGCCAGAACUACAGAAAUGUAGUUGACGAGGAGGAGGUUUAUCGAAUUUUCGGCGGAUGCCUCCAAA

What was measured:
Conditions in all cases: with glucosamine-6-phosphate
glucosamine-6-phosphate [1] = variants of: B1; test: kcat; higher = faster cleavage; RNA array
Method in brief: (§1)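 In situ transcription by E. coli RNA polymerase produced barcoded ribozyme variants on sequenced MiSeq chips, and a hybridised Cy3 probe tracked them at 37 °C. Glucosamine-6-phosphate was flowed in at 40 μM to 10 mM in HEPES/KCl/Mg(OAc)2 buffer. kcat and KM were taken from weighted Michaelis–Menten fits of kobs values from exponential decay fits.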

glucosamine-6-phosphate [2] = variants of: B1; test: KM; higher = weaker cofactor use; RNA array
Method in brief: as §1

glucosamine-6-phosphate [3] = variants of: B1; test: self-cleavage kobs at 40 uM GlcN6P; higher = faster cleavage; RNA array
Method in brief: as §1

glucosamine-6-phosphate [4] = variants of: B1; test: self-cleavage kobs at 160 uM GlcN6P; higher = faster cleavage; RNA array
Method in brief: as §1

glucosamine-6-phosphate [5] = variants of: B1; test: self-cleavage kobs at 640 uM GlcN6P; higher = faster cleavage; RNA array
Method in brief: as §1

glucosamine-6-phosphate [6] = variants of: B1; test: self-cleavage kobs at 2500 uM GlcN6P; higher = faster cleavage; RNA array
Method in brief: as §1

glucosamine-6-phosphate [7] = variants of: B1; test: self-cleavage kobs at 10000 uM GlcN6P; higher = faster cleavage; RNA array
Method in brief: as §1

Row | Variant | kcat (glucosamine-6-phosphate [1]) [s⁻¹] | KM (glucosamine-6-phosphate [2]) [µM] | self-cleavage kobs at 40 uM GlcN6P (glucosamine-6-phosphate [3]) [s⁻¹] | self-cleavage kobs at 160 uM GlcN6P (glucosamine-6-phosphate [4]) [s⁻¹] | self-cleavage kobs at 640 uM GlcN6P (glucosamine-6-phosphate [5]) [s⁻¹] | self-cleavage kobs at 2500 uM GlcN6P (glucosamine-6-phosphate [6]) [s⁻¹] | self-cleavage kobs at 10000 uM GlcN6P (glucosamine-6-phosphate [7]) [s⁻¹]
1 | A14C U30G | 0.00408 ± 0.001 | 5380 ± 1800 | 5.32e-05 ± 1.3e-05 | 0.000107 ± 2e-05 | 0.000417 ± 7.1e-05 | 0.00127 ± 0.00034 | 0.00267 ± 0.00036
2 | A14U C61A C70A | 1.21e-05 ± 3.3e-06 |  |  |  |  |  | 
3 | A14U A64G | 0.00805 ± 0.003 | 2740 ± 1300 | 0.000177 ± 2.5e-05 | 0.000391 ± 4.2e-05 | 0.00143 ± 0.00016 | 0.00635 ± 0.00079 | 0.00568 ± 0.00075
4 | A14G G43A | 0.000321 ± 4.1e-05 | 4730 ± 1200 | < 1e-05 |  | 4.36e-05 ± 1.3e-05 | 0.000101 ± 2.2e-05 | 0.000222 ± 3.1e-05
5 | A15C A53U | 0.00401 ± 0.00066 | 1690 ± 400 | 9.37e-05 ± 1.2e-05 | 0.000395 ± 9e-05 | 0.00119 ± 0.00025 | 0.00184 ± 0.00036 | 0.00391 ± 0.00049
6 | A15C C58G | 0.000128 ± 2.1e-05 |  |  |  | 4.09e-05 ± 1.2e-05 | 5.08e-05 ± 1.8e-05 | 0.000111 ± 1.4e-05
7 | A14C G51A A53U G59U C68U | 3.12e-05 ± 1.2e-05 |  |  |  |  |  | 
8 | A14G A64C | 0.000278 ± 1.8e-05 | 906 ± 140 |  |  | 0.000118 ± 1.4e-05 | 0.000217 ± 3.3e-05 | 0.000247 ± 3e-05
9 | A14C G66A | 0.00362 ± 0.0004 | 1940 ± 370 | 7.72e-05 ± 1.3e-05 |  | 0.000879 ± 0.00024 | 0.00158 ± 0.00047 | 0.00316 ± 0.00037
10 | A14C G29U G37U G38A C70A | 5.57e-05 ± 2e-05 |  |  |  |  | 6.04e-05 ± 2.4e-05 | 
11 | A14U C67U | 0.00362 ± 0.00099 | 2860 ± 930 | 6.23e-05 ± 7e-06 | 0.000181 ± 2e-05 | 0.000591 ± 7.1e-05 | 0.00164 ± 0.00034 | 0.0031 ± 0.00053
12 | A14U C67G | 0.000352 ± 8e-06 | 1670 ± 68 |  | 3.01e-05 ± 6.5e-06 | 9.71e-05 ± 6.9e-06 | 0.000215 ± 1.7e-05 | 0.000296 ± 2.9e-05
13 | A14U U30C | 2.9e-05 ± 1.4e-05 |  |  | < 1e-05 |  | 4.54e-05 ± 1.8e-05 | 
14 | A14C U54C | 0.00767 ± 0.0019 | 3550 ± 1100 | 0.000111 ± 1.2e-05 | 0.000296 ± 4.4e-05 | 0.000989 ± 0.00014 | 0.00305 ± 0.00048 | 0.00592 ± 0.00066
15 | A14G A15C | 0.0193 ± 0.0062 | 584 ± 270 | 0.00141 ± 0.00023 | 0.00312 ± 0.00073 | 0.0155 ± 0.0029 | 0.012 ± 0.0039 | 0.0199 ± 0.0053
16 | A14U A15C | 9.41e-05 ± 8.4e-06 | 1880 ± 510 |  |  | 3.12e-05 ± 1.3e-05 | 5.02e-05 ± 9.3e-06 | 8.11e-05 ± 1.1e-05
17 | A14U A15G | 0.0123 ± 0.0018 | 2410 ± 520 | 0.000225 ± 4e-05 | 0.000672 ± 0.00015 | 0.00234 ± 0.00043 | 0.0077 ± 0.0012 | 0.00944 ± 0.0012
18 | A15C A52G | 0.000755 ± 0.00022 | 7750 ± 3200 |  |  | 6.9e-05 ± 1.1e-05 | 0.000164 ± 2e-05 | 0.000449 ± 5.5e-05
19 | A15C C16A C70U C71U | 2.86e-05 ± 3.8e-06 |  |  |  |  | 2.89e-05 ± 1.3e-05 | 
20 | A15C G40U | 0.000399 ± 4.3e-05 | 1140 ± 230 |  | 5.39e-05 ± 1e-05 | 0.000135 ± 1.4e-05 | 0.000333 ± 5.3e-05 | 0.000348 ± 4.2e-05
21 | A14U G29C U46G C70A | 2.85e-05 ± 1.1e-05 |  |  |  |  |  | 
22 | A15C G37A | 0.000686 ± 9.5e-05 | 4650 ± 1200 |  |  | 9.31e-05 ± 1.5e-05 | 0.000226 ± 3.7e-05 | 0.000471 ± 4.5e-05
23 | A15G A42G | 0.132 ± 0.031 | 3780 ± 970 | 0.00132 ± 0.00047 | 0.00525 ± 0.0011 | 0.024 ± 0.0099 |  | 
24 | A15C G29A | 0.0015 ± 0.00014 | 6270 ± 870 |  |  | 0.000137 ± 2.3e-05 | 0.000429 ± 9.7e-05 | 0.000924 ± 0.00012
25 | A15C G29C | 0.00165 ± 0.00021 | 2620 ± 510 | 3.67e-05 ± 1e-05 | 8.7e-05 ± 1.5e-05 | 0.000333 ± 4.2e-05 | 0.000772 ± 9.9e-05 | 0.00135 ± 0.00018
26 | A15C C70A C71A | 3.7e-05 ± 3.6e-06 | 98.6 ± 41 |  |  |  |  | 
27 | A14G U31G | 0.00752 ± 0.0003 | 2120 ± 140 |  | 0.000539 ± 9.8e-05 | 0.00175 ± 0.00031 | 0.0039 ± 0.00067 | 0.00635 ± 0.00094
28 | A14G | 0.0996 ± 0.0091 | 1720 ± 180 | 0.00231 ± 4.7e-05 | 0.00764 ± 0.00054 | 0.0249 ± 0.0012 | 0.0558 ± 0.0042 | 0.0902 ± 0.0048
29 | A14U | 0.0182 ± 0.0048 | 2730 ± 850 | 0.000298 ± 5.5e-06 | 0.00073 ± 3e-05 | 0.00328 ± 0.00015 | 0.00942 ± 0.00041 | 0.0143 ± 0.00047
30 | A14C C71G | 0.000465 ± 0.00016 |  |  | 3.11e-05 ± 1e-05 | 0.000228 ± 7.6e-05 | 0.00017 ± 2.9e-05 | 0.00038 ± 4.5e-05
